Experimental data taken from US20200181677A1 (REGENTS OF THE UNIVERSITY OF MINNESOTA, published 2020).
Ends that are not written are not given here.

target: T1, human PKCα catalytic domain (human, UniProt P17252 336-672, limits assumed); test: time-resolved FRET (TCSPC) of eGFP/mCherry peptide-catalytic domain sensor
T1 construct: domain: catalytic domain; For activity assays the catalytic domain was isolated by TEV cleavage; also called catalytic domain of PKCα; PKC catalytic domain

Row | Binder | Mol Fraction Bound [mol fraction] | Mol Fraction Unbound [mol fraction]
1 | ASQKRPAQRH (peptide, not shown: large carriers; small tags and cut ends, also called p6) [peptide #6 (Myelin Basic Protein), alanine-substituted, in PKCα FRET sensor] | 0.08 | 0.92
2 | RRRRAIIFI (peptide, not shown: large carriers; small tags and cut ends, also called p10) [peptide #10 (Optimized PKA Sub.), alanine-substituted, in PKCα FRET sensor] | 0.16 | 0.84
3 | FKLKRKGAFKKFA (also: fused to PKCα catalytic domain via 10 nm ER/K linker in FRET sensor, Ala form in the FRET sensor, tethered to the PKCα catalytic domain by the 10 nm ER/K FRET linker; also called p11) [peptide #11 (Optimized PKCβ Sub.), alanine-substituted, in PKCα FRET sensor] | 0.15 | 0.85
